Test results from patent publication US20190300590A1 (PROTAGONIST THERAPEUTICS, published 2019).
Like-named read-outs stand apart in the source and are kept apart here. Values belong to the binder of their own block, whether it stands above or below them. *1 amine or outer side, *2 acyl side, *3 side chain or, on linkers, in order; H or OH if unused. Bridges are numbered along the chain shown (N, C = ends). Primed or numbered codes have the meaning given here. Side-chain parts run from the residue outwards. [ ]: non-standard residue; d: D form. The star is where a group is joined. Phe(4-OMe) = 4-methoxy-L-phenylalanine (O-methyl-L-tyrosine), COc1ccc(C[C@H](N[*:1])C(=O)[*:2])cc1; Phe(4-OMe)(4) = O-methyl-L-tyrosine, COc1ccc(C[C@H](N[*:1])C(=O)[*:2])cc1; Phe(3,4-Cl2) = N[C@@H](Cc1ccc(Cl)c(Cl)c1)C(=O)O; Phe(4-CONH2) = NC(=O)c1ccc(C[C@H](N)C(=O)O)cc1; Tyr(Ph) = N[C@@H](Cc1ccc(Oc2ccccc2)cc1)C(=O)O; 1Nal = N[C@@H](Cc1cccc2ccccc12)C(=O)O; 2Nal = N[C@@H](Cc1ccc2ccccc2c1)C(=O)O; AEF = NCCOc1ccc(C[C@H](N)C(=O)O)cc1; pGlu = O=C1CC[C@@H](C(=O)O)N1; αMeOrn = C[C@](N)(CCCN)C(=O)O; αMeK = C[C@](N)(CCCCN)C(=O)O; Isovaleryl = CC(C)CC(=O)*; PEG2′ = not defined here; Abu = CC[C@H](N)C(=O)O; Dap = NC[C@H](N)C(=O)O; Aib = CC(C)(N)C(=O)O

Key:
Rat IL-23R_huFC [1] = biological target: Rat IL-23R_huFC (rat); test: rat ELISA vs IL-23
[2] = biological target: T1, IL-23R on human cells (IL-23R-expressing DB cells; human NK cells) (human, UniProt Q5VWK5 24-629); test: cell-based or functional assay
T1 sequence (looked up): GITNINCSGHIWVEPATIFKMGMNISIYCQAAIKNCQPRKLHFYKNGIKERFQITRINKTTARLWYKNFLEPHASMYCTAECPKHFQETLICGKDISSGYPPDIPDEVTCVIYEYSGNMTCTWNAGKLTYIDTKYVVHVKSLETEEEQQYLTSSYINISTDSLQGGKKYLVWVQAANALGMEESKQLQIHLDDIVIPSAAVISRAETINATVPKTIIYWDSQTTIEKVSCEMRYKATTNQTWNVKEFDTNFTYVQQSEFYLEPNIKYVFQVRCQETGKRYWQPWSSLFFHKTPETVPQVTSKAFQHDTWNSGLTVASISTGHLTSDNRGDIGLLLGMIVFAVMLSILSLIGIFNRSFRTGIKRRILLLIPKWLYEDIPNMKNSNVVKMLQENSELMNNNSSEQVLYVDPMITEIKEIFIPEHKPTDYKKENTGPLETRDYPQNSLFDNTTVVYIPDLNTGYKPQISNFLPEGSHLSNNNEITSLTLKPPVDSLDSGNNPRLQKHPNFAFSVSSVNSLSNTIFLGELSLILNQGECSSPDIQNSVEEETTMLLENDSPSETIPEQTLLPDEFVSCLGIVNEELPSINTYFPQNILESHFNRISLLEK

IL23R_huFC [3] = biological target: T2, IL23R_huFC (human, UniProt Q5VWK5 24-353); test: human ELISA vs IL-23
T2 sequence (looked up): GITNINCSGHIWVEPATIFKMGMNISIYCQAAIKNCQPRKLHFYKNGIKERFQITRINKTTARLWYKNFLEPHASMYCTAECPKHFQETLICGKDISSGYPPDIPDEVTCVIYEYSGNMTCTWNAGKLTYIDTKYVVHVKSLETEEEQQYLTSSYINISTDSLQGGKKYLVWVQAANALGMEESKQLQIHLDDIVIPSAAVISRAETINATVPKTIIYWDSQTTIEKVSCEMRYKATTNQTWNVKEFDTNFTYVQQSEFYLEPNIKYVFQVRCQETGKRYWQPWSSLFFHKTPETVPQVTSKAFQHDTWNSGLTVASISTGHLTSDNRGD

Rat IL-23R_huFC [4] = biological target: T3, Rat IL-23R_huFC (rat, UniProt F1LX96 39-369); test: rat IL-23R competitive binding ELISA
T3 sequence: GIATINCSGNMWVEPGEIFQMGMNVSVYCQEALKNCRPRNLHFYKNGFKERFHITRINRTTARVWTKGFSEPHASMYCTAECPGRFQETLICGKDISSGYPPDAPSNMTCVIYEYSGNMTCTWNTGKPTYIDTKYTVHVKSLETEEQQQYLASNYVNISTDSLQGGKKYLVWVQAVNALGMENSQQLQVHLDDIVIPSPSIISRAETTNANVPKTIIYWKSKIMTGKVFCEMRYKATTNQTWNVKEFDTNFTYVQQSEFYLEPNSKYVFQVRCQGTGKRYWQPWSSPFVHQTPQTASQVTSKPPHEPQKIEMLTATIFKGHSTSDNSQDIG

IL23R_huFC [5] = biological target: T2, IL23R_huFC; test: human ELISA vs IL-23; remark: listed apart in the source

IC50 (Rat IL-23R_huFC [1]): 10 to 25 nM
Binder: Ac-[Abu]QTWQCY[2Nal][αMeK]ENG-NH2 (thioether 1-6) [Ac-Cyclo-[[Abu]-QTWQC]-Y-[2-Nal]-[α-MeLys]-ENG-NH2]

pStat3 HTRF IC50 [2]: < 10 nM
IC50 (IL23R_huFC [3]): 10 to 25 nM
Binder: Ac-[Abu]QTWQC[AEF][2Nal][αMeK]RNG-NH2 (thioether 1-6) [Ac-Cyclo-[[Abu]-QTWQC]-[Phe[4-(2-aminoethoxy)]]-[2-Nal]-[α-MeLys]-RNG-NH2]

pStat3 HTRF IC50 [2]: < 10 nM
IC50 (IL23R_huFC [3]): 10 to 25 nM
Binder: Ac-[Abu]QTWQC[AEF]W[Aib]ENN-NH2 (thioether 1-6) [Ac-Cyclo-[[Abu]-QTWQC]-[Phe[4-(2-aminoethoxy)]]-W-[Aib]-ENN-NH2]

IC50 (IL23R_huFC [3]): 10 to 25 nM
Binder: Ac-[Abu]QTWQC[AEF]W[αMeOrn]K(Ac)NG-NH2 (thioether 1-6) [Ac-Cyclo-[[Abu]-QTWQC]-[Phe[4-(2-aminoethoxy)]]-W-[α-Me-Orn]-[Lys(Ac)]-NG-NH2]

IC50 (Rat IL-23R_huFC [1]): 10 to 25 nM
Binder: Ac-[Abu]QTWQC[AEF][2Nal][αMeK]K(Isovaleryl)NG-NH2 (thioether 1-6) [Ac-Cyclo-[[Abu]-QTWQC]-[Phe[4-(2-aminoethoxy)]]-[2-Nal]-[α-MeLys]-[Lys(isovaleric acid)]-NG-NH2]

IC50 (Rat IL-23R_huFC [1]): 10 to 25 nM
Binder: Ac-[Abu]QTWQC[Phe(4-CONH2)][2Nal][αMeK]K(Ac)NG-NH2 (thioether 1-6) [Ac-Cyclo-[[Abu]-QTWQC]-[Phe(4-CONH2)]-[2-Nal][α-MeLys]-[Lys(Ac)]-NG-NH2]

IC50 (Rat IL-23R_huFC [4]): 25 to 100 nM
Binder: XQTWQXFWKKNG (Ac; Pen-Pen disulfide; Phe(4-OMe); α-MeLys; Lys(Ac); NH2) [Ac-[Pen]-QTWQ-[Pen]-[Phe-(4-OMe)]-W-[α-MeLys]-[Lys(Ac)]-NG-NH2]

IC50 (Rat IL-23R_huFC [4]): 25 to 100 nM
Binder: XQTWQXFXKKNG (Ac; Pen-Pen disulfide; Phe(4-OMe); 2-Nal; α-MeLys; Lys(Ac); NH2) [Ac-[Pen]-QTWQ-[Pen]-[Phe(4-OMe)]-[2-Nal]-[α-MeLys]-[Lys(Ac)]-NG-NH2]

IC50 (Rat IL-23R_huFC [4]): 10 to 25 nM
Binder: XQTWQXFXKKNN (Ac; Pen-Pen disulfide; Phe[4-(2-aminoethoxy)]; 2-Nal; α-MeLys; Lys(Ac); NH2) [Ac-[Pen]-QTWQ-[Pen]-[Phe[4-(2-aminoethoxy)]-[2-Nal]-[α-MeLys]-[Lys(Ac)]-NN-NH2]

IC50 (Rat IL-23R_huFC [4]): 25 to 100 nM
Binder: XQTWQXFXKKNN (Ac; Pen-Pen disulfide; Phe(4-CONH2); 2-Nal; α-MeLys; Lys(Ac); NH2) [Ac-[Pen]-QTWQ-[Pen]-[Phe(4-CONH2)]-[2-Nal]-[α-MeLys]-[Lys(Ac)]-NN-NH2]

IC50 (Rat IL-23R_huFC [4]): 10 to 25 nM
Binder: XQTWQXFXVKNN (Ac; Pen-Pen disulfide; Phe(4-CONH2); 2-Nal; α-MeVal; Lys(Ac); NH2) [Ac-[Pen]-QTWQ-[Pen]-[Phe(4-CONH2)]-[2-Nal]-[α-MeVal]-[Lys(Ac)]-NN-NH2]

IC50 (IL23R_huFC [5]): 100 to 1000 nM
Binder: Ac-[Abu]QTWQC[Phe(3,4-Cl2)][2Nal][αMeK]K(Ac)NG-NH2 (thioether 1-6) [Ac-Cyclo-[[Abu]-QTWQC]-Phe(3,4-Cl2)[2-Nal][α-MeLys]-Lys(Ac)]NG-NH2]

IC50 (IL23R_huFC [5]): 100 to 1000 nM
Binder: Ac-[Abu]QTWQC[Tyr(Ph)][2Nal][αMeK]K(Ac)NG-NH2 (thioether 1-6) [Ac-Cyclo-[[Abu]-QTWQC]-[Phe(4-Phenoxy)]-[2-Nal][α-MeLys]-[Lys(Ac)]-NG-NH2]

IC50 (Rat IL-23R_huFC [4]): 100 to 1000 nM
B1: 4-fluorophenylacetic acid-[Pen]-QTWQ-[Pen]-[Phe(4-OMe)]-[2-Nal]-[α-MeLys]-[Lys(Ac)]-NG-NH2 (peptide)
peptide: XQTWQXFXKKNG
modifications: N-terminal 4-fluorophenylacetic acid; Pen-Pen disulfide; Phe(4-OMe); 2-Nal; α-MeLys; Lys(Ac); NH2

IC50 (Rat IL-23R_huFC [4]): 25 to 100 nM
B2: isovaleric acid-[Pen]-QTWQ[Pen]-[Phe(4-OMe)]-[2-Nal]-[α-MeLys]-[Lys(Ac)]-NG-NH2 (peptide)
peptide: XQTWQXFXKKNG
modifications: N-terminal isovaleric acid; Pen-Pen disulfide; Phe(4-OMe); 2-Nal; α-MeLys; Lys(Ac); NH2

IC50 (Rat IL-23R_huFC [4]): 25 to 100 nM
Binder: XQTWQXFXKKNG (Ac; Pen-Pen disulfide; Phe[4-(2-aminoethoxy)]; 2-Nal; α-MeLys; Lys(Ac); NH2) [Ac-[Pen]-QTWQ-[Pen]-[Phe[4-(2-aminoethoxy)]-[2-Nal]-[α-MeLys]-[Lys(Ac)]-NG-NH2]

IC50 (IL23R_huFC [5]): 100 to 1000 nM
Binder: Ac-[Abu]QT[1Nal]QC[Phe(4-OMe)(4)][2Nal][αMeK]K(Ac)NG-NH2 (thioether 1-6) [Ac-Cyclo-[[Abu]-QT-[1-Nal]-QC]-[Phe(4-OMe)]-[2-Nal]-[α-MeLys]-[Lys(Ac)]-NG-NH2]

IC50 (IL23R_huFC [5]): 100 to 1000 nM
Binder: Ac-[Abu]QTWQC[Phe(4-OMe)]W[αMeK]K(Ac)NGE-NH2 (thioether 1-6) [Ac-Cyclo-[[Abu]-QTWQC]-[Phe(4-OMe)]-W-[α-MeLys]-[Lys(Ac)]-NGE-NH2]

IC50 (IL23R_huFC [3]): 10 to 25 nM
Binder: Ac-[Abu]QTWQC[AEF][2Nal][αMeK][Dap]([PEG2′-Ac])NG-NH2 (thioether 1-6) [Ac-Cyclo-[[Abu]-QTWQC]-[Phe[4-(2-aminoethoxy)]]-[2-Nal][α-MeLys]-[Dap(PEG2-Ac)]NG-NH2]

IC50 (Rat IL-23R_huFC [4]): 25 to 100 nM
B3: succinic acid-[Pen]-QTWQ[Pen]-[Phe(4-OMe)]-[2-Nal]-[α-MeLys]-[Lys(Ac)]-NG-NH2 (peptide)
peptide: XQTWQXFXKKNG
modifications: N-terminal succinic acid; Pen-Pen disulfide; Phe(4-OMe); 2-Nal; α-MeLys; Lys(Ac); NH2

pStat3 HTRF IC50 [2]: < 10 nM
IC50 (IL23R_huFC [3]): 10 to 25 nM
Binder: Ac-[Abu]QTWQC[AEF][2Nal][αMeK][Dap](pGlu)NG-NH2 (thioether 1-6) [Ac-Cyclo-[[Abu]-QTWQC]-[Phe[4-(2-aminoethoxy)]]-[2-Nal]-[α-MeLys]-[Dap(pyroglutamic acid)]-NG-NH2]
